{"source": "patent US20230203146A1", "key": {"[1]": {"target": "FLAG-tagged human Ang2 (human) (UniProt O15123)", "sequence (O15123 19-496)": "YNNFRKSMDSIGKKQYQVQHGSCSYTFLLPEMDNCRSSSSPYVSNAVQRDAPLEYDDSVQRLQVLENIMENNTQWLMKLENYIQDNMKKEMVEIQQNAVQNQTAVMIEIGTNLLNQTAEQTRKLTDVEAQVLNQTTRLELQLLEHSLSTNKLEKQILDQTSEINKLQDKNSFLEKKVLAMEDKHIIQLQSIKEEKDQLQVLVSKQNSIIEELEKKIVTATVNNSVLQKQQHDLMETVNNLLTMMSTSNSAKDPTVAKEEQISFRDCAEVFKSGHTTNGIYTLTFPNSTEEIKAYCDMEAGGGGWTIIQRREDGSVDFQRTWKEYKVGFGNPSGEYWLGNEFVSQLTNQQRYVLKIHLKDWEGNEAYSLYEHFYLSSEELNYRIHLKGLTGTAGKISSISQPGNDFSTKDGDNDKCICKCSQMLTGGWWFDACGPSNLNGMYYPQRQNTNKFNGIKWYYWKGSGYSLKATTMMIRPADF", "assay": "competition ELISA: blocking of FLAG-hAng2 binding to coated hTie2-Fc"}, "[2]": {"target": "FLAG-tagged mouse Ang2 (mouse) (UniProt O35608)", "sequence (O35608 19-496 limits assumed)": "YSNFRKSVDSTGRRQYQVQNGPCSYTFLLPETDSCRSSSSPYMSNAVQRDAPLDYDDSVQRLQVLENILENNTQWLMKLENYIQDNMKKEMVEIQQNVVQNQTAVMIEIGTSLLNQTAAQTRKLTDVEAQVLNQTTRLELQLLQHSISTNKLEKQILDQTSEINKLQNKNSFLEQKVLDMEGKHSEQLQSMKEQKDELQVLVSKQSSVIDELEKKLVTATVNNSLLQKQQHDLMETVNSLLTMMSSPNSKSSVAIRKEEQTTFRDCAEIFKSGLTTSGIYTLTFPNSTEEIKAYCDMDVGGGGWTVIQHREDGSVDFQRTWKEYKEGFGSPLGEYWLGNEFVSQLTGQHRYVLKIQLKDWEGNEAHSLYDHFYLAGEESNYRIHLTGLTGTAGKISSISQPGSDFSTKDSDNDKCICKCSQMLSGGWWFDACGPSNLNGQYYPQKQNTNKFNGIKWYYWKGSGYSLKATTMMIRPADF", "assay": "competition ELISA: blocking of FLAG-mAng2 binding to coated mTie2-Fc"}, "[3]": {"target": "FLAG-tagged human Ang2 (human) (UniProt O15123)", "assay": "competition ELISA: FLAG-hAng2 binding to coated hTie2-Fc, residual hAng2 detected with anti-FLAG-HRP"}, "[4]": {"target": "FLAG-tagged cynomolgus Ang2 (cynomolgus)", "sequence (O15123 other isoform, or with tags, fused parts or gaps limits assumed)": "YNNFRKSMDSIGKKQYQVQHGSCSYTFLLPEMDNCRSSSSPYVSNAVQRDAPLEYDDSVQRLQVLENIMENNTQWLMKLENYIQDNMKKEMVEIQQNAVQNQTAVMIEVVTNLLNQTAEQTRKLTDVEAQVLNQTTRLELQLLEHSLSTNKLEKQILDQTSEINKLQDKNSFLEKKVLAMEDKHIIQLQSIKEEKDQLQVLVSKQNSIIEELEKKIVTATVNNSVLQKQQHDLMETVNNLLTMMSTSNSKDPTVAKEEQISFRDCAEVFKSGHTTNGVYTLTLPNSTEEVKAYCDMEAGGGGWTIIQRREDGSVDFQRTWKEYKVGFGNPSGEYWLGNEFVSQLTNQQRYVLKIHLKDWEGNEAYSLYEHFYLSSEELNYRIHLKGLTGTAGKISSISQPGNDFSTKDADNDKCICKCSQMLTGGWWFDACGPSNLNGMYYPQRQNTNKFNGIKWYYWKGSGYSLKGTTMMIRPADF", "assay": "competition ELISA: blocking of FLAG-cAng2 binding to coated cTie2-Fc"}, "[5]": {"target": "FLAG-tagged mouse Ang2 (mouse) (UniProt O35608)", "assay": "competition ELISA: FLAG-mAng2 binding to coated mTie2-Fc, residual mAng2 detected with anti-FLAG-HRP"}, "[6]": {"target": "FLAG-tagged human Ang2 (human) (UniProt O15123)", "assay": "competition ELISA: blocking of FLAG-hAng2 binding to coated hTie2-Fc", "remark": "listed apart in the source"}, "[7]": {"target": "FLAG-tagged cynomolgus Ang2 (cynomolgus)", "assay": "competition ELISA: FLAG-cAng2 binding to coated cTie2-Fc, residual cAng2 detected with anti-FLAG-HRP"}, "[8]": {"target": "FLAG-tagged human Ang2 (human) (UniProt O15123)", "assay": "competition ELISA: blocking of FLAG-hAng2 binding to coated hTie2-Fc", "remark": "listed apart in the source"}, "[9]": {"target": "FLAG-tagged mouse Ang2 (mouse) (UniProt O35608)", "assay": "competition ELISA: FLAG-mAng2 binding to coated mTie2-Fc, residual mAng2 detected with anti-FLAG-HRP", "remark": "listed apart in the source"}, "[10]": {"target": "FLAG-tagged human Ang2 (human) (UniProt O15123)", "assay": "competition ELISA: blocking of FLAG-hAng2 binding to coated hTie2-Fc", "remark": "listed apart in the source"}, "[11]": {"target": "FLAG-tagged human Ang2 (human) (UniProt O15123)", "assay": "competition ELISA: FLAG-hAng2 binding to coated hTie2-Fc, residual hAng2 detected with anti-FLAG-HRP", "remark": "listed apart in the source"}, "[12]": {"target": "FLAG-tagged mouse Ang2 (mouse) (UniProt O35608)", "assay": "competition ELISA: FLAG-mAng2 binding to coated mTie2-Fc, residual mAng2 detected with anti-FLAG-HRP", "remark": "listed apart in the source"}, "[13]": {"target": "FLAG-tagged human Ang2 (human) (UniProt O15123)", "assay": "competition ELISA: FLAG-hAng2 binding to coated hTie2-Fc, residual hAng2 detected with anti-FLAG-HRP", "remark": "listed apart in the source"}, "[14]": {"target": "FLAG-tagged human Ang2 (human) (UniProt O15123)", "assay": "competition ELISA: FLAG-hAng2 binding to coated hTie2-Fc, residual hAng2 detected with anti-FLAG-HRP", "remark": "listed apart in the source"}}, "data": [{"substance": "AMG386 (Fc fusion)", "values": [{"measurement": "IC50 (read off the curve)", "setting": "[1]", "value": 4, "unit": "pM"}, {"measurement": "IC50 (read off the curve)", "setting": "[2]", "value": 6, "unit": "pM"}, {"measurement": "IC50 (read off the curve)", "setting": "[3]", "value": 5, "unit": "pM"}, {"measurement": "IC50 (read off the curve)", "setting": "[4]", "value": 1, "unit": "pM"}, {"measurement": "IC50 (read off the curve)", "setting": "[5]", "value": 3, "unit": "pM"}, {"measurement": "IC50 (read off the curve)", "setting": "[6]", "value": 3, "unit": "pM"}, {"measurement": "IC50 (read off the curve)", "setting": "[7]", "value": 10, "unit": "pM"}, {"measurement": "IC50 (read off the curve)", "setting": "[8]", "value": 0.5, "unit": "pM"}, {"measurement": "IC50 (read off the curve)", "setting": "[9]", "value": 7, "unit": "pM"}, {"measurement": "IC50 (read off the curve)", "setting": "[10]", "value": 5, "unit": "pM"}, {"measurement": "IC50 (read off the curve)", "setting": "[11]", "value": 2, "unit": "pM"}, {"measurement": "IC50 (read off the curve)", "setting": "[12]", "value": 4, "unit": "pM"}, {"measurement": "IC50 (read off the curve)", "setting": "[13]", "value": 3, "unit": "pM"}, {"measurement": "IC50 (read off the curve)", "setting": "[14]", "value": 6, "unit": "pM"}]}]}
